Target: CBS–CP12 protein (IPF_2164) of Microcystis aeruginosa PCC 7806 (Microcystis aeruginosa PCC 7806)
Assay: SEC

## CBS–CP12 protein (IPF_2164) of Microcystis aeruginosa PCC 7806 (natural protein)
  stoichiometry N: 6
